According to IntAct's records for PubMed 21460798:

B1: APC/C-CDH1 modulator 1 (Saccharomyces cerevisiae), Q08981 (parent)
chain: MISPSKKRTILSSKNINQKPRAVVKGNELRSPSKRRSQIDTDYALRRSPIKTIQISKAAQFMLYEETAEERNIAVHRHNEIYNNNNSVSNENNPSQVKENLSPAKICPYERAFLREGGRIALKDLSVDEFKGYIQDPLTDETIPLTLPLGDKKISLPSFITPPRNSKISIFFTSKHQGQNPETKISRSTDDVSEKKVVRKLSFHVYEDE
partner: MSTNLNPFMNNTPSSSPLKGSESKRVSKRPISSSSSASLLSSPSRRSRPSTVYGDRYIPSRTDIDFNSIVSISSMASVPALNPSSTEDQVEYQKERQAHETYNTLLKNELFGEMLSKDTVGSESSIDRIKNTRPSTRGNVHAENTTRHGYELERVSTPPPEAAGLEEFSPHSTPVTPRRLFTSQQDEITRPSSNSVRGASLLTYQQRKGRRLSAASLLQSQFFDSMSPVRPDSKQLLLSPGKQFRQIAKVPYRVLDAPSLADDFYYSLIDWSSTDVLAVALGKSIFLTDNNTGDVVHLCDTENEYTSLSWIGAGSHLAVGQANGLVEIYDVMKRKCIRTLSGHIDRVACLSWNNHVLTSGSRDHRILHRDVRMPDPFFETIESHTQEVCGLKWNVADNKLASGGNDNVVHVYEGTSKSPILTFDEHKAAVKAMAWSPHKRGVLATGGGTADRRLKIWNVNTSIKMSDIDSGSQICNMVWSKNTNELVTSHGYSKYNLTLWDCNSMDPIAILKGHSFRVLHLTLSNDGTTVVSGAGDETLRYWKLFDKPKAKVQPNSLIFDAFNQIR

Variants of: B1
Details: with cdh1_yeast CDH1, P53197

| effect of a mutation on the interaction | Variant |
| --- | --- |
| disrupting interaction | MISPSKKRTILSSKNINQKPRAVVKGNELRSPSKRRSQIDTDYALRRSPIKTIQISKAAQFMLYEETAEERNIAVHRHNEIYNNNNSVSNENNPSQVKENLSPAKICPYERAFLREGGAIALKDLSVDEFKGYIQDPLTDETIPLTLPLGDKKISLPSFITPPRNSKISIFFTSKHQGQNPETKISRSTDDVSEKKVVRKLSFHVYEDE [R119A] |
| disrupting interaction | MISPSKKRTILSSKNINQKPRAVVKGNELRSPSKRRSQIDTDYALRRSPIKTIQISKAAQFMLYEETAEERNIAVHRHNEIYNNNNSVSNENNPSQVKENLSPAKICPYERAFLREGGRIAAKDLSVDEFKGYIQDPLTDETIPLTLPLGDKKISLPSFITPPRNSKISIFFTSKHQGQNPETKISRSTDDVSEKKVVRKLSFHVYEDE [L122A] |
| disrupting interaction | MISPSKKRTILSSKNINQKPRAVVKGNELRSPSKRRSQIDTDYALRRSPIKTIQISKAAQFMLYEETAEERNIAVHRHNEIYNNNNSVSNENNPSQVKEALSPAKICPYERAFLREGGRIALKDLSVDEFKGYIQDPLTDETIPLTLPLGDKKISLPSFITPPRNSKISIFFTSKHQGQNPETKISRSTDDVSEKKVVRKLSFHVYEDE [N100A] |
| disrupting interaction | MISPSKKRTILSSKNINQKPRAVVKGNELRSPSKRRSQIDTDYALRRSPIKTIQISKAAQFMLYEETAEERNIAVHRHNEIYNNNNSVSNENNPSQVAENLSPAKICPYERAFLREGGRIALKDLSVDEFKGYIQDPLTDETIPLTLPLGDKKISLPSFITPPRNSKISIFFTSKHQGQNPETKISRSTDDVSEKKVVRKLSFHVYEDE [K98A] |
| disrupting interaction | MISPSKKRTILSSKNINQKPRAVVKGNELRSPSKRRSQIDTDYALRRSPIKTIQISKAAQFMLYEETAEERNIAVHRHNEIYNNNNSVSNENNPSQVKANLSPAKICPYERAFLREGGRIALKDLSVDEFKGYIQDPLTDETIPLTLPLGDKKISLPSFITPPRNSKISIFFTSKHQGQNPETKISRSTDDVSEKKVVRKLSFHVYEDE [E99A] |
| disrupting interaction | MISPSKKRTILSSKNINQKPRAVVKGNELRSPSKRRSQIDTDYALRRSPIKTIQISKAAQFMLYDETAEERNIAVHRHNEIYNNNNSVSNENNPSQVKENLSPAKICPYERAFLREGGRIALKDLSVDEFKGYIQDPLTDETIPLTLPLGDKKISLPSFITPPRNSKISIFFTSKHQGQNPETKISRSTDDVSEKKVVRKLSFHVYEDE [E65D] |
| disrupting interaction | MISPSKKRTILSSKNINQKPRAVVKGNELRSPSKRRSQIDTDYALRRSPIKTIQISKAAQFMLYEATAEERNIAVHRHNEIYNNNNSVSNENNPSQVKENLSPAKICPYERAFLREGGRIALKDLSVDEFKGYIQDPLTDETIPLTLPLGDKKISLPSFITPPRNSKISIFFTSKHQGQNPETKISRSTDDVSEKKVVRKLSFHVYEDE [E66A] |

Variants of: B1
Details: with cdh1_yeast CDH1, P53197
Remark: another data set of the same source

| effect of a mutation on the interaction | Variant |
| --- | --- |
| disrupting interaction | MISPSKKRTILSSKNINQKPRAVVKGNELRSPSKRRSQIDTDYALRRSPIKTIQISKAAQFMLYEEAAEERNIAVHRHNEIYNNNNSVSNENNPSQVKENLSPAKICPYERAFLREGGRIALKDLSVDEFKGYIQDPLTDETIPLTLPLGDKKISLPSFITPPRNSKISIFFTSKHQGQNPETKISRSTDDVSEKKVVRKLSFHVYEDE [T67A] |
| disrupting interaction | MISPSKKRTILSSKNINQKPRAVVKGNELRSPSKRRSQIDTDYALRRSPIKTIQISKAAQFMLYAETAEERNIAVHRHNEIYNNNNSVSNENNPSQVKENLSPAKICPYERAFLREGGRIALKDLSVDEFKGYIQDPLTDETIPLTLPLGDKKISLPSFITPPRNSKISIFFTSKHQGQNPETKISRSTDDVSEKKVVRKLSFHVYEDE [E65A] |
| disrupting interaction | MISPSKKRTILSSKNINQKPRAVVKGNELRSPSKRRSQIDTDYALRRSPIKTIQISKAAQFMLYEDTAEERNIAVHRHNEIYNNNNSVSNENNPSQVKENLSPAKICPYERAFLREGGRIALKDLSVDEFKGYIQDPLTDETIPLTLPLGDKKISLPSFITPPRNSKISIFFTSKHQGQNPETKISRSTDDVSEKKVVRKLSFHVYEDE [E66D] |

Variants of: B1
Details: with cdh1_yeast CDH1, P53197
Remark: another data set of the same source

| effect of a mutation on the interaction | Variant |
| --- | --- |
| decreasing interaction | MISPSKKRTILSSKNINQKPRAVVKGNELRSPSKRRSQIDTDYALRRSPIKTIQISKAAQFMLYEEAAEERNIAVHRHNEIYNNNNSVSNENNPSQVKENLSPAKICPYERAFLREGGRIALKDLSVDEFKGYIQDPLTDETIPLTLPLGDKKISLPSFITPPRNSKISIFFTSKHQGQNPETKISRSTDDVSEKKVVRKLSFHVYEDE [T67A] |
| decreasing interaction | MISPSKKRTILSSKNINQKPRAVVKGNELRSPSKRRSQIDTDYALRRSPIKTIQISKAAQFMLYAETAEERNIAVHRHNEIYNNNNSVSNENNPSQVKENLSPAKICPYERAFLREGGRIALKDLSVDEFKGYIQDPLTDETIPLTLPLGDKKISLPSFITPPRNSKISIFFTSKHQGQNPETKISRSTDDVSEKKVVRKLSFHVYEDE [E65A] |
| decreasing interaction | MISPSKKRTILSSKNINQKPRAVVKGNELRSPSKRRSQIDTDYALRRSPIKTIQISKAAQFMLYEATAEERNIAVHRHNEIYNNNNSVSNENNPSQVKENLSPAKICPYERAFLREGGRIALKDLSVDEFKGYIQDPLTDETIPLTLPLGDKKISLPSFITPPRNSKISIFFTSKHQGQNPETKISRSTDDVSEKKVVRKLSFHVYEDE [E66A] |
